Results as given in patent publication US12428489 (University of Texas, dated 2025).

T1: PD-L2 on CHO-PD-L2 cells (human, UniProt Q9BQ51 20-273)
T1 sequence: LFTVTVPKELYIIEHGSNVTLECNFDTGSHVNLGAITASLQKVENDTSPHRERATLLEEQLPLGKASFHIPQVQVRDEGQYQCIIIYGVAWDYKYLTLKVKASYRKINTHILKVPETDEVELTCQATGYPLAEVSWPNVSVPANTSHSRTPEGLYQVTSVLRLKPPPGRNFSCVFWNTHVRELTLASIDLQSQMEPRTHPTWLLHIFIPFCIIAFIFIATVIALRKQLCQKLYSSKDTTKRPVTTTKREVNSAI

T2: Cyno PD-L2-Fc (cyno, UniProt A0A2K5U5Z4 20-220)
T2 construct: not shown: Fc part
T2 sequence: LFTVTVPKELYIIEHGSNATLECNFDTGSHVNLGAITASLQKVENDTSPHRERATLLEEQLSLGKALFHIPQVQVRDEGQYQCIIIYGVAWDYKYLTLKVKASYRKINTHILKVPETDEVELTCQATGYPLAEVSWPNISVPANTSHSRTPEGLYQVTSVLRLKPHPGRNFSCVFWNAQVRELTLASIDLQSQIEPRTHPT

T3: Human PD-L2-Fc (human, UniProt Q9BQ51 20-220)
T3 construct: also called Fc fusion antigen; not shown: Fc part
T3 sequence: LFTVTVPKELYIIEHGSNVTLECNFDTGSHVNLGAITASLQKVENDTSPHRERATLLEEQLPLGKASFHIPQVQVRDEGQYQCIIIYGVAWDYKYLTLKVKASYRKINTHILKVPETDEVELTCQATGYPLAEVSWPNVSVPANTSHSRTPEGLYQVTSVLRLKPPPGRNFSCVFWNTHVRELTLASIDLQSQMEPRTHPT

T4: Mouse PD-L2-Fc (mouse, UniProt Q9WUL5 20-219)
T4 construct: not shown: Fc part
T4 sequence (looked up): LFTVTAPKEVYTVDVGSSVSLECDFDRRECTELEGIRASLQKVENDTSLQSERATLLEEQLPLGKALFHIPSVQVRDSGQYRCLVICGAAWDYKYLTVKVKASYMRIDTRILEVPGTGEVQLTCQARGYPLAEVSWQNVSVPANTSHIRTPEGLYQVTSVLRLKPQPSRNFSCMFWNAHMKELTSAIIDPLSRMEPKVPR

T5: Human PD-L2-HIS (human, UniProt Q9BQ51 20-220)
T5 construct: also called HIS-tagged protein (human PD-L2); not shown: HIS tag
T5 sequence: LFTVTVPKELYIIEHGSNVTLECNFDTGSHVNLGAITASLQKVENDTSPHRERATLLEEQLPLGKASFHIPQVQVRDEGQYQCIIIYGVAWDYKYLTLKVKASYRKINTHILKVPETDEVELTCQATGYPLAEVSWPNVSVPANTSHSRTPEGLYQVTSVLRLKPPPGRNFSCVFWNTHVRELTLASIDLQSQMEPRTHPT

T6: human PD-L2 protein (human, UniProt Q9BQ51 20-220, limits assumed)
T6 construct: also called analyte (PD-L2)
T6 sequence: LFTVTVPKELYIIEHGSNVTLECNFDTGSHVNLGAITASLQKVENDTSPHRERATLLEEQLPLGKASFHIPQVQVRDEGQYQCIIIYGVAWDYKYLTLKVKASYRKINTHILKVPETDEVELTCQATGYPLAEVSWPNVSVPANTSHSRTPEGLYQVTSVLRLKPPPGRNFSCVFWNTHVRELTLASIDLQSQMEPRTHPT


Tests used:
PD-L2 on CHO-PD-L2 cells [1] = target: T1, PD-L2 on CHO-PD-L2 cells; test: cell-based or functional assay
PD-L2 on CHO-PD-L2 cells [2] = target: T1, PD-L2 on CHO-PD-L2 cells; test: cell-based or functional assay; remark: listed apart in the source
Cyno PD-L2-Fc = target: T2, Cyno PD-L2-Fc; test: ForteBio Octet, IgG KD, Cyno PD-L2-Fc, avid
Experimental: (§1) ForteBio K_D measurements—ForteBio affinity measurements were performed on an Octet RED384 generally as previously described (see, e.g., Estep et al., High throughput solution-based measurement of antibody-antigen affinity and epitope binning. Mabs 5(2), 270-278 (2013)). Briefly, ForteBio affinity measurements were performed by loading IgGs on-line onto AHQ sensors. Sensors were equilibrated off-line in assay buffer for 30 min and then monitored on-line for 60 seconds for baseline establishment. Sensors with loaded IgGs were exposed to 100 nM antigen for 3 minutes, and afterwards were transferred to assay buffer for 3 min for off-rate measurement. For monovalent affinity assessment Fabs were used instead of IgGs. For this assessment the unbiotinylated Fc fusion antigen was loaded on-line onto the AHQ sensors. Sensors were equilibrated off-line in assay buffer for 30 min and then monitored on-line for 60 seconds for baseline establishment. Sensors with loaded antigen were exposed to 100 nM Fab for 3 minutes, and afterwards they were transferred to assay buffer for 3 min for off-rate measurement. All kinetics were analyzed using the 1:1 binding model.

Human PD-L2-Fc [3] = target: T3, Human PD-L2-Fc; test: ForteBio Octet, IgG KD, Human PD-L2-Fc, avid
Mouse PD-L2-Fc = target: T4, Mouse PD-L2-Fc; test: ForteBio Octet, IgG KD, Mouse PD-L2-Fc, avid
Human PD-L2-HIS = target: T5, Human PD-L2-HIS; test: IgG KD, Human PD-L2-HIS, monovalent (method not named in the table: ForteBio or MSD-SET)
human PD-L2 protein = target: T6, human PD-L2 protein; test: MFI against Ab nM; legend: binding to human PD-L2 protein, maximum fluorescence intensity, ForteBio Octet
Experimental: Antibody Screening and Characterization. Antibody candidates generated from the presentation methods described above were tested for the capacity to bind to PD-L2 and block its binding to PD-1. 5 µg/mL of antibody was bound to CHO-PD-L2 cells and then recombinant PD-1 (RnD Systems) labelled with Alexa 532 (ThermoFisher) was added for 1 hour. PD-1 maximum fluorescence intensity was measured. Blockade of PD-1 binding was measured by reduction in Alexa 532 fluorescence by flow cytometry. […] The binding and release of the analyte (PD-L2) are recorded by the Octet instrument in real time and then used to calculate the KD, $Kon$, and $Kdis$; results are derived from 2:1 Global Fit Modeling with reference well subtraction. […]
PD-L2 antibodies avidly bind human PD-L2. […] Antibody subclones were immobilized on Anti-Human Fc Capture (AHC) Biosensors at 100 nM (15 μg/mL), and human PD-L2 protein association and dissociation was tested in dilution series from 30-0.37 nM (FIGS. 4A-B).

PD-L2 on CHO-PD-L2 cells [4] = target: T1, PD-L2 on CHO-PD-L2 cells; test: competition assay by flow cytometry: antibody against Biotin-rhPD-1-Fc on PD-L2 expressing cells, Streptavidin-APC; axis 'Antibodies µg (logX)'
Human PD-L2-Fc [5] = target: T3, Human PD-L2-Fc; test: ForteBio Octet, Fab KD, Human PD-L2-Fc on sensor, monovalent
Experimental: as §1

PD-L2 on CHO-PD-L2 cells [6] = target: T1, PD-L2 on CHO-PD-L2 cells; test: cell-based or functional assay; remark: listed apart in the source
PD-L2 on CHO-PD-L2 cells [7] = target: T1, PD-L2 on CHO-PD-L2 cells; test: cell-based or functional assay; remark: listed apart in the source
PD-L2 on CHO-PD-L2 cells [8] = target: T1, PD-L2 on CHO-PD-L2 cells; test: cell surface binding, panel 'Binding Assay PD-L2', MFI against Ab nM (flow cytometry on PD-L2 expressing cells)

Row | EC50 (read off the curve) (PD-L2 on CHO-PD-L2 cells [2]) | Kd (Cyno PD-L2-Fc) | Kd (Human PD-L2-Fc [3]) | Kd (Mouse PD-L2-Fc) | Kd (Human PD-L2-HIS) | EC50 (read off the curve) (human PD-L2 protein) | Kd (Human PD-L2-Fc [5]) | Binder | further results
1 | ~0.3 nM | 0.296 nM | 0.116 nM | 21.6 nM | 0.052 nM | ~0.9 nM |  | ADI-20816 (anti-PD-L2 antibody 20816), IgG (antibody, V domains shown, Tested as full-length IgG; Clone family 55-g1) VH: QVQLVQSGAEVKKPGSSVKVSCKASGGTFSSYLIAWVRQAPGQGLEWMGGIIPHFGVANYAQKFQGRVTITADESTSTAYMELSSLRSEDTAVYYCARVPQYHGYFDLWGRGTLVTVSS VL: DIQMTQSPSSVSASVGDRVTITCRASQGISSWLAWYQQKPGKAPKLLIYAASNLQSGVPSRFSGSGSGTDFTLTISSLQPEDFATYYCQQGNSFPTFGGGTKVEIK | IC50 (Promega PD-1:PD-L2 bioassay, luciferase) [Cont'd] (PD-L2 on CHO-PD-L2 cells [1]): 0.38 nM
2 |  |  |  |  |  |  |  | anti-PD-L2 antibody 16510 (antibody, human IgG1, V domains shown) VH: QVQLVQSGAEVKKPGSSVKVSCKASGGTFSSYAISWVRQAPGQGLEWMGGIIPIFGTANYAQKFQGRVTITADESTSTAYMELSSLRSEDTAVYYCARVQKQYTYFDLWGRGTLVTVSS VL: DIQLTQSPSSLSASVGDRVTITCQASQDISNFLNWYQQKPGKAPKLLIYDASNLETGVPSRFSGSGSGTDFTFTISSLQPEDIATYYCQQLVGAPPTFGGGTKVEIK | IC50 (read off the curve) (PD-L2 on CHO-PD-L2 cells [4]): ~0.006 µg
3 |  |  |  |  |  |  | 0.268 nM | ADI-20816 Fab (Fab, V domains shown) VH: QVQLVQSGAEVKKPGSSVKVSCKASGGTFSSYLIAWVRQAPGQGLEWMGGIIPHFGVANYAQKFQGRVTITADESTSTAYMELSSLRSEDTAVYYCARVPQYHGYFDLWGRGTLVTVSS VL: DIQMTQSPSSVSASVGDRVTITCRASQGISSWLAWYQQKPGKAPKLLIYAASNLQSGVPSRFSGSGSGTDFTLTISSLQPEDFATYYCQQGNSFPTFGGGTKVEIK | 
4 | ~0.2 nM | 0.3 nM | 0.331 nM | 0.503 nM | 0.0025 nM | ~0.7 nM |  | ADI-20810 (anti-PD-L2 antibody 20810), IgG (antibody, V domains shown, Tested as full-length IgG) VH: not shown VL: EIVLTQSPATLSLSPGERATLSCRASQSVSSYLAWYQQKPGQAPRLLIYDASNRATGIPARFSGSGSGTDFTLTISSLEPEDFAVYYCQQVVTLPPTFGGGTKVEIK | IC50 (Promega PD-1:PD-L2 bioassay, luciferase) (PD-L2 on CHO-PD-L2 cells [6]): 0.41 nM; EC50 (read off the curve) (PD-L2 on CHO-PD-L2 cells [7]): ~0.4 nM; EC50 (read off the curve) (PD-L2 on CHO-PD-L2 cells [8]): ~0.7 nM
5 |  |  |  |  |  |  | 0.267 nM | ADI-20810 Fab (Fab, V domains shown) VH: not shown VL: EIVLTQSPATLSLSPGERATLSCRASQSVSSYLAWYQQKPGQAPRLLIYDASNRATGIPARFSGSGSGTDFTLTISSLEPEDFAVYYCQQVVTLPPTFGGGTKVEIK | 
6 |  |  |  |  |  |  | 0.21 nM | ADI-20811 Fab (Fab, V domains shown) VH: QVQLVQSGAEVKKPGSSVKVSCKASGGTFSSAAIHWVRQAPGQGLEWMGGIIPIFGLAQYAQKFQGRVTITADESTSTAYMELSSLRSEDTAVYYCARLPRTWSAFDIWGQGTMVTVSS VL: EIVLTQSPATLSLSPGERATLSCRASQSVSSYLAWYQQKPGQAPRLLIYDASNRATGIPARFSGSGSGTDFTLTISSLEPEDFAVYYCQQVVTLPPTFGGGTKVEIK | 
7 | ~0.2 nM | 0.231 nM | 0.248 nM | 0.259 nM | 0.0085 nM | ~0.3 nM |  | ADI-20811 (anti-PD-L2 antibody 20811), IgG (antibody, V domains shown, Tested as full-length IgG) VH: QVQLVQSGAEVKKPGSSVKVSCKASGGTFSSAAIHWVRQAPGQGLEWMGGIIPIFGLAQYAQKFQGRVTITADESTSTAYMELSSLRSEDTAVYYCARLPRTWSAFDIWGQGTMVTVSS VL: EIVLTQSPATLSLSPGERATLSCRASQSVSSYLAWYQQKPGQAPRLLIYDASNRATGIPARFSGSGSGTDFTLTISSLEPEDFAVYYCQQVVTLPPTFGGGTKVEIK | IC50 (Promega PD-1:PD-L2 bioassay, luciferase) (PD-L2 on CHO-PD-L2 cells [6]): 0.24 nM
